Assay results published in paper PMC7417364.

Target: Paracoccidioides brasiliensis 1-Cys peroxiredoxin (PbPrx1), recombinant (Paracoccidioides brasiliensis (isolate Pb18))
Experiment: SEC; analytical HPLC, Phenomenex BioSep-SEC-S3000 column, 50 uM protein in 100 mM Tris-HCl pH 7.4, run in 100 mM Tris-HCl pH 7.4 with 50 mM NaCl, 1.0 mL/min; samples treated beforehand with 5 mM TCEP (reduced) or 1.2 molar equivalents of H2O2 (oxidised) for 30 min at 25 C; dimeric in both redox states

stoichiometry N: 2
Substance: Paracoccidioides brasiliensis 1-Cys peroxiredoxin (PbPrx1), recombinant (enzyme)
